Laboratory results reported in the RNAGym collection of RNA variant scans (doi:10.1073/pnas.2313332121).

B1: TPR t1 (parent)
chain: GACCAAUCUGCCCUCAGAGCUCGAGAACAUCUUCGGAUGCAGAGGAGGCAGGCUUCGGUGGCGCGAUAGCGCCAACGUCCUCAACCUCCAAUGCAUCCCACCACAUGAUGAUGCCUGAAGAGCCUUGGUUUUUUG

Variants of: B1
Experiment: polymerase ribozyme fitness, log enrichment relative to wild type (log ratio); higher = more active; in vitro selection for triplet polymerase activity
Procedure, shortened: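 A single round of triplicate in vitro selection, including frozen incubation at −7 °C, was applied to PCR-built, transcribed mutant libraries of each subunit of a heterodimeric triplet polymerase ribozyme. Illumina sequencing of input and output libraries retained genotypes with ≥10 input reads and ≥1 read per output. Fitness is the base-2 logarithm of genotype enrichment divided by wild-type enrichment, from inverse-variance-weighted replicate averages.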

Row | Variant | polymerase ribozyme fitness (log ratio)
1 | U38A C102U | -4.16
2 | U38A C114A A121U | -1.59
3 | U38A G39A G61U | -1.2
4 | U38A G45C C89U | -2.34
5 | U38A G60A A121C G135U | -1.36
6 | U38A G60U C62A A74U C115G | -6.4
7 | U38A G61A | -1.68
8 | U38A G63A | -2.12
9 | U38A G71U C80U A95G C124A | -0.159
10 | U38A G120U | 0.263
11 | U38A G127A | -2.5
12 | U38A U54G U112C G120A | -0.498
13 | U38A U96A | -1.13
14 | U38C A46U A100C | -4.28
15 | U38C C56U | -0.488
16 | U38C G42C U78A A84C | -3.16
17 | U38C G63C C102U | -3.7
18 | U38G A41U | -2.98
19 | U38G A41U C62U | -3.01
20 | U38G A46U G77U C124U | -1.67
21 | U38G A90U | -1.61

Row | Variant | polymerase ribozyme fitness (log ratio)
22 | U38G A105C U112A G122C | -5.07
23 | U38G A121C | 1.24
24 | U38G C40U | -1.03
25 | U38G C49A G77U C85G C115A | -3.84
26 | U38G C49U U125G | -2.98
27 | U38G C53A U81C C101U C124G | 1
28 | U38G C53U C124U | 0.103
29 | U38G C56U C72A U131C | -2.05
30 | U38G C62A U106A G113U | -6.66
31 | U38G C73G A95C A100C U106A G127A | -2.6
32 | U38G C80A C88U | -4.45
33 | U38G C80U | -1.64
34 | U38G C82G A95G | -2.72
35 | U38G C89U | -0.78
36 | U38G C97U | -4.33
37 | U38G C101A | -1.88
38 | U38G C102U | -3.84
39 | U38G G39A C72A U81A U112A | -2.71
40 | U38G G42A C79U | -2.56
41 | U38G G42C A43U G71C C82U C115U | -4.36
42 | U38G G42U G61U C73U C115U | -3.73

Row | Variant | polymerase ribozyme fitness (log ratio)
43 | U38G G44A | -2.72
44 | U38G G47U | -3.26
45 | U38G G47U G120A U130C | -1.92
46 | U38G G52A G63C | -2.23
47 | U38G G52C U55G A74U | -2.31
48 | U38G G52U G135C | -3.58
49 | U38G G60U | -0.261
50 | U38G G135U | -2.04
51 | U38G U55G | 0.414
52 | U38G U78A | -0.0381
53 | U38G U106A | -1.09
54 | G39A A43U | -1.78
55 | G39A A50C C73A C79A C82G | -0.859
56 | G39A A68G C115G U130A | -6.03
57 | G39A A84C U106A | -0.784
58 | G39A A90G | 0.17
59 | G39A A118G A121U | 1.46
60 | G39A C40A | -3.25
61 | G39A C53U G61C A84U G127C | -2.2
62 | G39A C56A | -0.909
63 | G39A C56A G120U | -0.286

Row | Variant | polymerase ribozyme fitness (log ratio)
64 | G39A C56A U130A U131C | -1.5
65 | G39A C56G C94G A111C C114U U130G | -4.67
66 | G39A C56U G107U A111U U129A | -5.29
67 | G39A C62A C89G C101U | -5.16
68 | G39A C64U C98G A103C A111G | -7.64
69 | G39A C70G U112G | -4.63
70 | G39A C72G A105G | -2.86
71 | G39A C72U C99U G120A U126C | -3.09
72 | G39A C73A G117A A119G | 1.02
73 | G39A C97A G120C | -6.66
74 | G39A C115A | -0.711
75 | G39A C124A | 1.38
76 | G39A C124G | 1.36
77 | G39A G42A A46G G58A | -2.47
78 | G39A G47U | -2.07
79 | G39A G48A A100C G120A | -1.06
80 | G39A G51U C79U C101U | -5.14
81 | G39A G57A G60C C101A G113C | -6.12
82 | G39A G57U G71U U78G C123A | -0.79
83 | G39A G58A | -1.7
84 | G39A G60A C86U U116A | -3.99
